According to paper PMC2933578, “Mutational analysis of an archaeal minichromosome maintenance protein exterior hairpin reveals critical residues for helicase activity and DNA binding” (BMC Molecular Biology, 2010):

What was measured:
[1] = target: ssoMCM mutant M7 (ED327AA) (Sulfolobus solfataricus) (UniProt Q9UXG1); assay: SEC; Superose 6 size exclusion column, 250 mM NaCl; ~0.5 mg of protein; markers ferritin (440 kD) and aldolase (158 kD); self-association to the hexamer
[2] = substrate: Nc1ncnc2c1ncn2[C@@H]1O[C@H](COP(=O)(O)OP(=O)(O)OP(=O)(O)O)[C@@H](O)[C@H]1O; assay: EnzChek phosphate release ATPase assay; type: biochemical, Saccharolobus solfataricus; conditions: no DNA, per monomeric MCM subunit, unit nM
Description: EnzChek phosphate release ATPase assay on ssoMCM

[3] = target: the molecule itself; assay: SEC; Superose 6 size exclusion column, 250 mM NaCl; ~0.5 mg of protein; markers ferritin (440 kD) and aldolase (158 kD); self-association to the hexamer

| Molecule | stoichiometry N [1] | Km ([2]; mutant M3) [nM] | kcat ([2]; mutant M3) [s⁻¹] | stoichiometry N [3] | Km ([2]; mutant M4, printed VL324AA) [nM] | kcat ([2]; mutant M4, printed VL324AA) [s⁻¹] |
| --- | --- | --- | --- | --- | --- | --- |
| ssoMCM mutant M7 (ED327AA) (from UniProt Q9UXG1 1-686) (enzyme) | 6 | – | – | – | – | – |
| ssoMCM mutant M3 (L325A) (enzyme, Sulfolobus solfataricus, UniProt Q9UXG1 1-686, looked up, MCM of Sulfolobus solfataricus with L325A; source: cloned and purified (Resource Q anion exchange, size-exclusion chromatography) as described previously [15]) MEIPSKQIDYRDVFIEFLTTFKGNNNQNKYIERINELVAYRKKSLIIEFSDVLSFNENLAYEIINNTKIILPILEGALYDHILQLDPTYQRDIEKVHVRIVGIPRVIELRKIRSTDIGKLITIDGILVKVTPVKERIYKATYKHIHPDCMQEFEWPEDEEMPEVLEMPTICPKCGKPGQFRLIPEKTKLIDWQKAVIQERPEEVPSGQLPRQLEIILEDDLVDSARPGDRVKVTGILDIKQDSPVKRGSRAVFDIYMKVSSIEVSQKVLDEVIISEEDEKKIKDLAKDPWIRDRIISSIAPSIYGHWELKEALALALFGGVPKVAEDTRIRGDIHILIIGDPGTAKSQMLQFISRVAPRAVYTTGKGSTAAGLTAAVVREKGTGEYYLEAGALVLADGGIAVIDEIDKMRDEDRVAIHEAMEQQTVSIAKAGIVAKLNARAAVIAAGNPKFGRYISERPVSDNINLPPTILSRFDLIFILKDQPGEQDRELANYILDVHSGKSTKNIIDIDTLRKYIAYARKYVTPKITSEAKNLITDFFVEMRKKSSETPDSPILITPRQLEALIRISEAYAKMALKAEVTREDAERAINIMRLFLESVGVDMESGKIDIDTIMTGKPKSAREKMMKIIEIIDSLAVSSECAKVKDILKEAQQVGIEKSNIEKLLTDMRKSGIIYEAKPECYKKV | – | 270 ± 40 | 0.0783 ± 0.005 | 6 | – | – |
| ssoMCM mutant M4 (VL324AA) (enzyme, Sulfolobus solfataricus, UniProt Q9UXG1 1-686, looked up, MCM of Sulfolobus solfataricus with the double mutation VL324AA (V324 and L325 to alanine); source: cloned and purified (Resource Q anion exchange, size-exclusion chromatography) as described previously [15]) MEIPSKQIDYRDVFIEFLTTFKGNNNQNKYIERINELVAYRKKSLIIEFSDVLSFNENLAYEIINNTKIILPILEGALYDHILQLDPTYQRDIEKVHVRIVGIPRVIELRKIRSTDIGKLITIDGILVKVTPVKERIYKATYKHIHPDCMQEFEWPEDEEMPEVLEMPTICPKCGKPGQFRLIPEKTKLIDWQKAVIQERPEEVPSGQLPRQLEIILEDDLVDSARPGDRVKVTGILDIKQDSPVKRGSRAVFDIYMKVSSIEVSQKVLDEVIISEEDEKKIKDLAKDPWIRDRIISSIAPSIYGHWELKEALALALFGGVPKAAEDTRIRGDIHILIIGDPGTAKSQMLQFISRVAPRAVYTTGKGSTAAGLTAAVVREKGTGEYYLEAGALVLADGGIAVIDEIDKMRDEDRVAIHEAMEQQTVSIAKAGIVAKLNARAAVIAAGNPKFGRYISERPVSDNINLPPTILSRFDLIFILKDQPGEQDRELANYILDVHSGKSTKNIIDIDTLRKYIAYARKYVTPKITSEAKNLITDFFVEMRKKSSETPDSPILITPRQLEALIRISEAYAKMALKAEVTREDAERAINIMRLFLESVGVDMESGKIDIDTIMTGKPKSAREKMMKIIEIIDSLAVSSECAKVKDILKEAQQVGIEKSNIEKLLTDMRKSGIIYEAKPECYKKV | – | – | – | 6 | 230 ± 10 | 0.065 ± 0.00167 |
